Legend:
[1] = target: LIF receptors on the surface of DA-1 cells; assay: 125I-LIF binding to intact DA-1 cells, phthalate oil separation
[2] = target: Human LIF-R encoded by cDNA clone 65 (pHLIFR-65), expressed on transfected COS-7 cells (human); assay: 125I-LIF binding to COS cells transfected with LIF-R cDNA clone 65, Scatchard analysis
[3] = target: Recombinant human leukemia inhibitory factor (LIF) (human) (UniProt P15018); assay: Scatchard analysis, LIF-R/Fc on Protein G Sepharose beads with serial dilutions of 125I-LIF

Substance	Ka [1] [M⁻¹]	Ka [2] [M⁻¹]	Ka [3] [M⁻¹]
Recombinant human leukemia inhibitory factor (LIF) (from UniProt P15018) (ligand)	7.4e+08	> 1e+09	
Soluble human LIF-R/Fc homodimer (Fc fusion)			9e+08

From patent US5785967
